Data published in patent US20240299596A1, “METHODS AND MATERIALS FOR COMBINING BIOLOGICS WITH MULTIPLE CHELATORS” (priority 2021, published 2024).

Legend:
in vitro = in vitro ADME, mouse
Experimental: The stability of the ^64Cu-Conjugate 2 was tested in mouse serum and human serum at 37° C. using the Rad-iTLC method. Approximately 1.0 mL of mouse serum was extracted from blood of the mice and ˜1.0 mL of human serum was extracted from blood obtained from the Mayo Clinic's blood bank to measure the stability of radiolabeled ^64Cu-Conjugate 2. Obtained mouse and human serums were distributed separately in 100 μL aliquots in 1.5 mL microcentrifuge tubes (n=3). To which, 20 μL of ^64Cu-Conjugate2 was added in each 100 μL serum aliquot and mixed thoroughly. From this mixture, a small amount of reaction mixture was taken out using glass capillary tube and immediately spotted on an iTLC plate for analysis as T=0 timepoint (n=3). The rest of the reaction mixtures were incubated at 37° C. for up to 2 hours and small fractions were taken out at 1 hour and 2 hours post incubation to analyze the stability of ^64Cu-Conjugate 2 over time using radioactive thin layer chromatography (r-TLC). To do r-TLC analysis, iTLC (silica gel coated on paper, Agilent Technologies Inc., Santa Clara, CA) was used as a solid phase and 0.1M sodium citrate as a mobile phase. In this r-TLC condition, unconjugated (free)^64Cu moves to the solvent front of the r-TLC and radiolabeled ^64Cu-Conjugate 2 stays at the origin of the r-TLC plate. Based on the relative % of radioactivity at origin and at the solvent front, the % of intact ^64Cu-Conjugate2 and free ^64Cu was measured as presented in Tables 35 and 36.

[1] = Stability of ^64Cu-Conjugate 2 over time by TLC; format: physicochemical; conditions: silica gel, 0.1M sodium citrate
Experimental: The Conjugate-1 was radiolabeled with Cu-64 using [^64Cu]CuCl2 produced from cyclotron and formulated in 0.1M hydrochloric acid. Different amounts (50 μg, 100 μg) of Conjugate-1 were used and the pH was adjusted to 5.0 using 0.1M sodium acetate after addition of [^64Cu]CuCl2. The resultant reaction mixture was stirred at room temperature for different durations as 10 minutes, 20 minutes, 30 minutes, and 40 minutes to optimize radiolabeling yield with reaction time. The progress and yield of the reactions were monitored by radioactive thin layer chromatography (r-TLC) using iTLC (silica gel coated on paper, Agilent Technologies Inc., Santa Clara, CA) and 0.1M sodium citrate as a mobile phase. In this r-TLC condition, unconjugated (Free)^64Cu moves to the solvent front of the r-TLC and radiolabeled ^64Cu-Conjugate-1 stays at the origin of the r-TLC plate. Based on our tested radiolabeling condition, the reaction achieved >99% yield radiolabeling in 10 minutes and at all other time points at pH 5.0 using sodium acetate as a reaction buffer via stirring at room temperature. Formation of radiolabeled ^64Cu-Conjugate-1 was also confirmed by radio HPLC.
The TLC was performed with a silica gel solid phase and 0.1M sodium citrate mobile phase.
The stability of the ^64Cu-Conjugate 2 was also analyzed by TLC using the same TLC method as the ^64Cu-Conjugate 1 at various time points. The time points included: 40 minutes (Table 31 and FIG. 26), 2 hours (Table 32 and FIG. 27), 4 hours (Table 33 and FIG. 28), 8 hours (Table 34 and FIG. 29).

[2] = Stability of ^64Cu-Conjugate 2 over time by HPLC; format: physicochemical
Experimental: The method used a Schmadzu HPLC system, which was equipped with dual UV and radioactivity detectors. […] Conjugate 2 was tested with varying concentrations (Table 18A below). […] For analysis, the compound was dissolved in water and a calibration curve was prepared to estimate the specific activity of the synthesized compound. Depending upon the chemical nature of the compound a different retention time was observed.
The stability of the ^64Cu-Conjugate 2 was tested using the same HPLC method as the Conjugate 2 at various time points. The time points included: 40 minutes (Tables 23-24 and FIG. 22), 2 hours (Tables 25-26 and FIG. 23), 4 hours (Tables 27-28 and FIG. 24), and 8 hours (Tables 29-30 and FIG. 25).

[3] = Micro PET imaging and ex-vivo biodistribution (SUV) in normal nude mice; parameters: species or system normal nude mice (strain: 002019, NU/J); conditions: mouse
From the text: in accordance with Loening AM and Gambhir SS. […] Mol Imaging 2003; 2:131-7.

NC(=O)CN1CCN(CC(N)=O)CCN(CC(N)=O)C(Cc2ccc(NC(=S)NCCN(CCNC(=S)Nc3ccc(CC4CN(CC(=O)O)CCN(CC(=O)O)CCN4CC(=O)O)cc3)C(=O)Cc3ccc(NC(=S)NCCCC[C@H](NC(=O)N[C@@H](CCC(=O)O)C(=O)O)C(=O)O)cc3)cc2)CN(CC(N)=O)CC1 (some centres unmarked) [^64Cu-Conjugate 2, metal not drawn]
Intact (%), Average (in vitro): 98.26% | Stability in mouse serum (in words) (in vitro): stable up to 2 hours in mouse serum | remaining at 1 h (in vitro; mouse, serum): 96.8% | remaining at 2 h (in vitro; mouse, serum): 97.6% | % of ROI, Rgn 1 (origin, radiolabeled conjugate) ([1]; 40 minutes): 99.62% | % of ROI, Rgn 2 (solvent front, free ^64Cu) ([1]; 40 minutes): 0.38% | % of ROI, Rgn 1 (origin, radiolabeled conjugate) ([1]; 2 hours): 99.40% | % of ROI, Rgn 2 (solvent front, free ^64Cu) ([1]; 2 hours): 0.60% | % of ROI, Rgn 2 (solvent front, free ^64Cu) ([1]; 4 hours): 0.36% | % of ROI, Rgn 1 (origin, radiolabeled conjugate) ([1]; 8 hours): 99.19% | % of ROI, Rgn 2 (solvent front, free ^64Cu) ([1]; 8 hours): 0.81% | % Conc. of main HPLC peak ([2]; 40 minutes, Table 23 trace, peak at Ret. Time 9.335): 99.894% | % Conc. of main HPLC peak ([2]; 40 minutes, Table 24 trace, peak at Ret. Time 8.609): 98.297% | % Conc. of main HPLC peak ([2]; 2 hours, Table 25 trace, peak at Ret. Time 9.298): 99.770% | % Conc. of main HPLC peak ([2]; 2 hours, Table 26 trace, peak at Ret. Time 8.572): 98.718% | % Conc. of main HPLC peak ([2]; 4 hours, Table 27 trace, peak at Ret. Time 9.286): 99.463% | % Conc. of main HPLC peak ([2]; 4 hours, Table 28 trace, peak at Ret. Time 8.555): 98.453% | % Conc. of main HPLC peak ([2]; 8 hours, Table 29 trace, peak at Ret. Time 9.359): 99.107% | % Conc. of main HPLC peak ([2]; 8 hours, Table 30 trace, peak at Ret. Time 8.562): 98.173% | Site of accumulation in PET image [3]: accumulates in proximal tubules in the kidney
